Our source for the MFI and koff values is CN106084048A (UNIV SUN YAT SEN, dated 2016).

In experiment [1] the target is CD3 on Jurkat cells (UniProt P07766). The experiment in a line: flow cytometry, culture supernatant on Jurkat cells (negative control).
Experiment [2] has the same target. The experiment in a line: flow cytometry, culture supernatant on Jurkat cells.
The target in a further experiment is T1, CD3-His蛋白(MP-5) (UniProt P07766 23-126).
T1 construct: Immunogen and panning antigen; The Octet method speaks only of 'CD3蛋白' in solution at 100 nM; also called CD3蛋白; not shown: His tag
T1 sequence (P07766 23-126): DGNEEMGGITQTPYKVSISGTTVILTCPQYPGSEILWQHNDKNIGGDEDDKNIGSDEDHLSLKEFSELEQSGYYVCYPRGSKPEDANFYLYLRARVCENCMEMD
The experiment in a line: BLI (Octet RED96), sdAb-SASA from expression medium captured on BSA-coated biosensor, 100 nM CD3 in solution, 1:1 Langmuir fit, 30°C.

NC-sdAb(相同形式的非相关性sdAb) (VHH) displayed an MFI with CD3 on Jurkat cells [1] of 115 MFI.

B1: 抗CD3单域抗体 C58 (VHH)
VHH: QVQLQESGGGLVQPGGSLRLSCAASGFTLDYYAIGWFRQAPGKEREGVSCISSGDGTTYYADSVKGRFTISRDNAKNTVYLQMNSLKPEDTAVYYCAAARTRKVISIATMTLDPKVFASWGQGTQVTVSS
notes: Llama sdAb from a phage library; Tested as unpurified sdAb-SASA protein in E. coli expression medium / culture supernatant (FASEBA format); 3 in its text; also called sdAb C58; not shown: SASA fusion partner of the pFASEBA vector (sdAb-SASA protein in the expression medium)
In the case of B1, the MFI with CD3 on Jurkat cells [2] came to 245 MFI. Moreover, the off-rate (koff) with CD3-His蛋白(MP-5) is 3.91e-05 s⁻¹.

B2: 抗CD3单域抗体 C57 (VHH)
VHH: QVQLQESGGGLVQAGDSLRLSCAASGRTFSSYVMGWFRQAPGKEREFVAAIRWSGGSTYYADSVKGRFTISRDNAKNTMYLQMNSLKPEDTAVYYCAAAQKINTDVTGAYWGQGTQVTVSS
notes: Llama sdAb from a phage library; Tested as unpurified sdAb-SASA protein in E. coli expression medium / culture supernatant (FASEBA format); 1 in its text; also called sdAb C57; not shown: SASA fusion partner of the pFASEBA vector (sdAb-SASA protein in the expression medium)
In the experiment with CD3 on Jurkat cells [2], B2 showed an MFI of 213 MFI. Besides, in the experiment with CD3-His蛋白(MP-5), the koff was found to be 4.6e-05 s⁻¹.
